Target: C3 convertase complex (UniProt P01024 23-1663; P00751 260-764)
Experiment: cell-based or functional assay

Sequence of C3 convertase complex (P01024 23-1663, chain 1 of 2): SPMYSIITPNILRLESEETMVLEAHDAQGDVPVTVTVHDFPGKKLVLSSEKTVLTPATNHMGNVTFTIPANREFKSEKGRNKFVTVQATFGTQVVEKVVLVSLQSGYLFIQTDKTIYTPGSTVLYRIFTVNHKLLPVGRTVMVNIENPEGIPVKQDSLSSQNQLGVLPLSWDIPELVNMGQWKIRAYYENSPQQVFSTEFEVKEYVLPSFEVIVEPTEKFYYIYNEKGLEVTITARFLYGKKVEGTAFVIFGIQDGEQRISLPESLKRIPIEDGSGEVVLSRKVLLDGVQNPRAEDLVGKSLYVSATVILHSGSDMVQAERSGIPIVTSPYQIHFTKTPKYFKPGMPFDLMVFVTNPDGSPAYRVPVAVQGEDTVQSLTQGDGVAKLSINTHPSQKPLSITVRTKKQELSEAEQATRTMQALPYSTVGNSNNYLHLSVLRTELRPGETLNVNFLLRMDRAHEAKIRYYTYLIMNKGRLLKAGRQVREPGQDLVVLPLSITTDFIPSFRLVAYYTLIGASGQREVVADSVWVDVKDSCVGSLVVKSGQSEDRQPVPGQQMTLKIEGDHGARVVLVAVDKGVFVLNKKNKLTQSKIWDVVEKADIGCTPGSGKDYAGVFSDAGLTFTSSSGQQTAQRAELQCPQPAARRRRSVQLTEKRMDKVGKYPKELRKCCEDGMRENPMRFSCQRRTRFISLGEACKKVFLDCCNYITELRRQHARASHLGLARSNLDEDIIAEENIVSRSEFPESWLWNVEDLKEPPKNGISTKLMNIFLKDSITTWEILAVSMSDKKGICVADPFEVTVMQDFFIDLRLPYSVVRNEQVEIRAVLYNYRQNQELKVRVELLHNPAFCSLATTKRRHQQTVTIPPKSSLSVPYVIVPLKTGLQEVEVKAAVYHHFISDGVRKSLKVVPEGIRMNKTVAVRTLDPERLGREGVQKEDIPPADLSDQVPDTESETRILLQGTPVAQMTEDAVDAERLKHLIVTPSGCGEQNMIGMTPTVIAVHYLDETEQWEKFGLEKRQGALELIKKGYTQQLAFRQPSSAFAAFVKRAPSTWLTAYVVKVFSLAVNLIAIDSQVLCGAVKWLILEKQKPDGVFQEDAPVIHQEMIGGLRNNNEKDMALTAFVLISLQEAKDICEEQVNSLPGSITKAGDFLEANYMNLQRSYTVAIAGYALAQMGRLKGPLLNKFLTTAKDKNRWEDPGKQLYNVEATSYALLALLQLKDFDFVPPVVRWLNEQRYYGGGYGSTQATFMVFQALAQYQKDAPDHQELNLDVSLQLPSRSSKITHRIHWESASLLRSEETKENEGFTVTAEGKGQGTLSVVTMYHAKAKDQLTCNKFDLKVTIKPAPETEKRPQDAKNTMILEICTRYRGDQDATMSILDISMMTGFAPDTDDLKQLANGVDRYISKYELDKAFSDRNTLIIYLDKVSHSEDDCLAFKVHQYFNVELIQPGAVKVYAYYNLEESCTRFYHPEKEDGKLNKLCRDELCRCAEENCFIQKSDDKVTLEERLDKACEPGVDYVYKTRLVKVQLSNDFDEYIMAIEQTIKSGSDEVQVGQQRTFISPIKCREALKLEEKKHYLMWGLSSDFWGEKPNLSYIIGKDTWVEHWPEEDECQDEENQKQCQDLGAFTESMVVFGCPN
Sequence of C3 convertase complex (P00751 260-764, chain 2 of 2): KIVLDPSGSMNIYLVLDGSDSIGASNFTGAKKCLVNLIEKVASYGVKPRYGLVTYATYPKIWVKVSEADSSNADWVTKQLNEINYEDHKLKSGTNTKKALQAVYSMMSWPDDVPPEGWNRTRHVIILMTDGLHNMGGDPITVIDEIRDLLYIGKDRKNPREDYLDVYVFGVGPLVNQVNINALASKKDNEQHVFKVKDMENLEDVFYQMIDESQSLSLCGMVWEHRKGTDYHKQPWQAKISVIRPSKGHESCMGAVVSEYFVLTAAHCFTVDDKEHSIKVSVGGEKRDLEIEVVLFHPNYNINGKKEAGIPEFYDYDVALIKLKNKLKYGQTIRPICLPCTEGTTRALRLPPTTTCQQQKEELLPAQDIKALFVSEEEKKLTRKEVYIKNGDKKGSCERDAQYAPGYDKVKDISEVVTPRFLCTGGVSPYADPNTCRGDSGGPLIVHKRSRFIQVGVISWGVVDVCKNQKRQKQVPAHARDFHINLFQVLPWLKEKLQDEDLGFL

| Binder | C3 convertase activity % of the control | C3 convertase activity IC50 [mg/L] |
| --- | --- | --- |
| pCEP4-1NT7-11CT20 (other) EDCNELPPRRNTEILTGSWSDQTYPEGTQAIYKCRPGYRSLGNVIMVCRKGEWVALNPLRKCQKRPCGHPGDTPFGTFTLTGGNVFEYGVKAVYTCNEGYQLLGEINYRECDTDGWTNDIPICEVVKCLPVTAPENGKIVSSAMEPDREYHFGQAVRFVCNSGYKIEGDEEMHCSDDGFWSKEKPKCVEISCKSPDVINGSPISQKIIYKENERFQYKCNMGYEYSERGDAVCTESGWRPLPSCEEKSCDNPYIPNGDYSPLRIKHRTGDEITYQCRNGFYPATRGNTAKCTSTGWIPAPRCTLKPCDYPDIKHGGLYHENMRRPYFPVAVGKYYSYYCDEHFETPSGSYWDHIHCTQDGWSPAVPCLRKCYFPYLENGYNQNYGRKFVQGKSIDVACHPGYALPKAQTTVTCMENGWSPTPRCIRVKTGASGCGPPPELLNGNVKEKTKEEYGHSEVVEYYCNPRFLMKGPNKIQCVDGEWTTLPVCIVEESTCGDIPELEHGWAQLSSPPYYYGDSVEFNCSESFTMIGHRSITCIHGVWTQLPQCVAIDKLKKCKSSNLIILEEHLKNKKEFDHNSNIRYRCRGKEGWIHTVCINGRWDPEVNCSMAQIQLCPPPPQIPNSHNMTTTLNYRDGEKVSVLCQENYLIQEGEEITCKDGRWQSIPLCVEKIPCSQPPQIEHGTINSSRSSQESYAHGTKLSYTCEGGFRISEENETTCYMGKWSSPPQCEGLPCKSPPEISHGVVAHMSDSYQYGEEVTYKCFEGFGIDGPAIAKCLGEKWSHPPSCIKTDCLSLPSFENAIPMGEKKDVYKAGEQVTYTCATYYKMDGASNVTCINSRWTGRPTCRDTSCVNPPTVQNAYIVSRQMSKYPSGERVRYQCRSPYEMFGDEEVMCLNGNWTEPPQCKDSTGKCGPPPPIDNGDITSFPLSVYAPASSVEYQCQNLYQLEGNKRITCRNGQWSEPPKCLHPCVISREIMENYNIALRWTAKQKLYSRTGESVEFVCKRGYRLSSRSHTLRTTCWDGKLEYPTCAKRGGSGHHHHHH | 134 % of the control | 0.265 |
| pCEP4-1NT4-9CT20 (other) EDCNELPPRRNTEILTGSWSDQTYPEGTQAIYKCRPGYRSLGNVIMVCRKGEWVALNPLRKCQKRPCGHPGDTPFGTFTLTGGNVFEYGVKAVYTCNEGYQLLGEINYRECDTDGWTNDIPICEVVKCLPVTAPENGKIVSSAMEPDREYHFGQAVRFVCNSGYKIEGDEEMHCSDDGFWSKEKPKCVEISCKSPDVINGSPISQKIIYKENERFQYKCNMGYEYSERGDAVCTESGWRPLPSCEEKSGASGCDIPVFMNARTKNDFTWFKLNDTLDYECHDGYESNTGSTTGSIVCGYNGWSDLPICYERECELPKIDVHLVPDRKKDQYKVGEVLKFSCKPGFTIVGPNSVQCYHFGLSPDLPICKEQVQSCGPPPELLNGNVKEKTKEEYGHSEVVEYYCNPRFLMKGPNKIQCVDGEWTTLPVCIVEESTCGDIPELEHGWAQLSSPPYYYGDSVEFNCSESFTMIGHRSITCIHGVWTQLPQCVAIDKLKKCKSSNLIILEEHLKNKKEFDHNSNIRYRCRGKEGWIHTVCINGRWDPEVNCSMAQIQLCPPPPQIPNSHNMTTTLNYRDGEKVSVLCQENYLIQEGEEITCKDGRWQSIPLCVEKIPCSQPPQIEHGTINSSRSSQESYAHGTKLSYTCEGGFRISEENETTCYMGKWSSPPQCEGLPCKSPPEISHGVVAHMSDSYQYGEEVTYKCFEGFGIDGPAIAKCLGEKWSHPPSCIKTDCLSLPSFENAIPMGEKKDVYKAGEQVTYTCATYYKMDGASNVTCINSRWTGRPTCRDTSCVNPPTVQNAYIVSRQMSKYPSGERVRYQCRSPYEMFGDEEVMCLNGNWTEPPQCKDSTGKCGPPPPIDNGDITSFPLSVYAPASSVEYQCQNLYQLEGNKRITCRNGQWSEPPKCLHPCVISREIMENYNIALRWTAKQKLYSRTGESVEFVCKRGYRLSSRSHTLRTTCWDGKLEYPTCAKRGGSGHHHHHH | 18 % of the control | 0.536 |
| pCEP4-1NT8-9CT20 (other) EDCNELPPRRNTEILTGSWSDQTYPEGTQAIYKCRPGYRSLGNVIMVCRKGEWVALNPLRKCQKRPCGHPGDTPFGTFTLTGGNVFEYGVKAVYTCNEGYQLLGEINYRECDTDGWTNDIPICEVVKCLPVTAPENGKIVSSAMEPDREYHFGQAVRFVCNSGYKIEGDEEMHCSDDGFWSKEKPKCVEISCKSPDVINGSPISQKIIYKENERFQYKCNMGYEYSERGDAVCTESGWRPLPSCEEKSCDNPYIPNGDYSPLRIKHRTGDEITYQCRNGFYPATRGNTAKCTSTGWIPAPRCTLKPCDYPDIKHGGLYHENMRRPYFPVAVGKYYSYYCDEHFETPSGSYWDHIHCTQDGWSPAVPCLRKCYFPYLENGYNQNYGRKFVQGKSIDVACHPGYALPKAQTTVTCMENGWSPTPRCIRVKTCSKSSIDIENGFISESQYTYALKEKAKYQCKLGYVTADGETSGSITCGKDGWSAQPTCIKSGASGCDIPVFMNARTKNDFTWFKLNDTLDYECHDGYESNTGSTTGSIVCGYNGWSDLPICYERECELPKIDVHLVPDRKKDQYKVGEVLKFSCKPGFTIVGPNSVQCYHFGLSPDLPICKEQVQSCGPPPELLNGNVKEKTKEEYGHSEVVEYYCNPRFLMKGPNKIQCVDGEWTTLPVCIVEESTCGDIPELEHGWAQLSSPPYYYGDSVEFNCSESFTMIGHRSITCIHGVWTQLPQCVAIDKLKKCKSSNLIILEEHLKNKKEFDHNSNIRYRCRGKEGWIHTVCINGRWDPEVNCSMAQIQLCPPPPQIPNSHNMTTTLNYRDGEKVSVLCQENYLIQEGEEITCKDGRWQSIPLCVEKIPCSQPPQIEHGTINSSRSSQESYAHGTKLSYTCEGGFRISEENETTCYMGKWSSPPQCEGLPCKSPPEISHGVVAHMSDSYQYGEEVTYKCFEGFGIDGPAIAKCLGEKWSHPPSCIKTDCLSLPSFENAIPMGEKKDVYKAGEQVTYTCATYYKMDGASNVTCINSRWTGRPTCRDTSCVNPPTVQNAYIVSRQMSKYPSGERVRYQCRSPYEMFGDEEVMCLNGNWTEPPQCKDSTGKCGPPPPIDNGDITSFPLSVYAPASSVEYQCQNLYQLEGNKRITCRNGQWSEPPKCLHPCVISREIMENYNIALRWTAKQKLYSRTGESVEFVCKRGYRLSSRSHTLRTTCWDGKLEYPTCAKRGGSGHHHHHH | 27 % of the control | 0.489 |
| pCEP4-1NT4-11CT20 (other) EDCNELPPRRNTEILTGSWSDQTYPEGTQAIYKCRPGYRSLGNVIMVCRKGEWVALNPLRKCQKRPCGHPGDTPFGTFTLTGGNVFEYGVKAVYTCNEGYQLLGEINYRECDTDGWTNDIPICEVVKCLPVTAPENGKIVSSAMEPDREYHFGQAVRFVCNSGYKIEGDEEMHCSDDGFWSKEKPKCVEISCKSPDVINGSPISQKIIYKENERFQYKCNMGYEYSERGDAVCTESGWRPLPSCEEKSGASGCGPPPELLNGNVKEKTKEEYGHSEVVEYYCNPRFLMKGPNKIQCVDGEWTTLPVCIVEESTCGDIPELEHGWAQLSSPPYYYGDSVEFNCSESFTMIGHRSITCIHGVWTQLPQCVAIDKLKKCKSSNLIILEEHLKNKKEFDHNSNIRYRCRGKEGWIHTVCINGRWDPEVNCSMAQIQLCPPPPQIPNSHNMTTTLNYRDGEKVSVLCQENYLIQEGEEITCKDGRWQSIPLCVEKIPCSQPPQIEHGTINSSRSSQESYAHGTKLSYTCEGGFRISEENETTCYMGKWSSPPQCEGLPCKSPPEISHGVVAHMSDSYQYGEEVTYKCFEGFGIDGPAIAKCLGEKWSHPPSCIKTDCLSLPSFENAIPMGEKKDVYKAGEQVTYTCATYYKMDGASNVTCINSRWTGRPTCRDTSCVNPPTVQNAYIVSRQMSKYPSGERVRYQCRSPYEMFGDEEVMCLNGNWTEPPQCKDSTGKCGPPPPIDNGDITSFPLSVYAPASSVEYQCQNLYQLEGNKRITCRNGQWSEPPKCLHPCVISREIMENYNIALRWTAKQKLYSRTGESVEFVCKRGYRLSSRSHTLRTTCWDGKLEYPTCAKRGGSGHHHHHH | 17 % of the control | 0.546 |
| pCEP4-1NT9-16CT20 (other) EDCNELPPRRNTEILTGSWSDQTYPEGTQAIYKCRPGYRSLGNVIMVCRKGEWVALNPLRKCQKRPCGHPGDTPFGTFTLTGGNVFEYGVKAVYTCNEGYQLLGEINYRECDTDGWTNDIPICEVVKCLPVTAPENGKIVSSAMEPDREYHFGQAVRFVCNSGYKIEGDEEMHCSDDGFWSKEKPKCVEISCKSPDVINGSPISQKIIYKENERFQYKCNMGYEYSERGDAVCTESGWRPLPSCEEKSCDNPYIPNGDYSPLRIKHRTGDEITYQCRNGFYPATRGNTAKCTSTGWIPAPRCTLKPCDYPDIKHGGLYHENMRRPYFPVAVGKYYSYYCDEHFETPSGSYWDHIHCTQDGWSPAVPCLRKCYFPYLENGYNQNYGRKFVQGKSIDVACHPGYALPKAQTTVTCMENGWSPTPRCIRVKTCSKSSIDIENGFISESQYTYALKEKAKYQCKLGYVTADGETSGSITCGKDGWSAQPTCIKSCDIPVFMNARTKNDFTWFKLNDTLDYECHDGYESNTGSTTGSIVCGYNGWSDLPICYEREGASGCKSPPEISHGVVAHMSDSYQYGEEVTYKCFEGFGIDGPAIAKCLGEKWSHPPSCIKTDCLSLPSFENAIPMGEKKDVYKAGEQVTYTCATYYKMDGASNVTCINSRWTGRPTCRDTSCVNPPTVQNAYIVSRQMSKYPSGERVRYQCRSPYEMFGDEEVMCLNGNWTEPPQCKDSTGKCGPPPPIDNGDITSFPLSVYAPASSVEYQCQNLYQLEGNKRITCRNGQWSEPPKCLHPCVISREIMENYNIALRWTAKQKLYSRTGESVEFVCKRGYRLSSRSHTLRTTCWDGKLEYPTCAKRGGSGHHHHHH | 25 % of the control | 0.418 |
| pCEP4-1NT8-16CT20 (other) EDCNELPPRRNTEILTGSWSDQTYPEGTQAIYKCRPGYRSLGNVIMVCRKGEWVALNPLRKCQKRPCGHPGDTPFGTFTLTGGNVFEYGVKAVYTCNEGYQLLGEINYRECDTDGWTNDIPICEVVKCLPVTAPENGKIVSSAMEPDREYHFGQAVRFVCNSGYKIEGDEEMHCSDDGFWSKEKPKCVEISCKSPDVINGSPISQKIIYKENERFQYKCNMGYEYSERGDAVCTESGWRPLPSCEEKSCDNPYIPNGDYSPLRIKHRTGDEITYQCRNGFYPATRGNTAKCTSTGWIPAPRCTLKPCDYPDIKHGGLYHENMRRPYFPVAVGKYYSYYCDEHFETPSGSYWDHIHCTQDGWSPAVPCLRKCYFPYLENGYNQNYGRKFVQGKSIDVACHPGYALPKAQTTVTCMENGWSPTPRCIRVKTCSKSSIDIENGFISESQYTYALKEKAKYQCKLGYVTADGETSGSITCGKDGWSAQPTCIKSGASGCKSPPEISHGVVAHMSDSYQYGEEVTYKCFEGFGIDGPAIAKCLGEKWSHPPSCIKTDCLSLPSFENAIPMGEKKDVYKAGEQVTYTCATYYKMDGASNVTCINSRWTGRPTCRDTSCVNPPTVQNAYIVSRQMSKYPSGERVRYQCRSPYEMFGDEEVMCLNGNWTEPPQCKDSTGKCGPPPPIDNGDITSFPLSVYAPASSVEYQCQNLYQLEGNKRITCRNGQWSEPPKCLHPCVISREIMENYNIALRWTAKQKLYSRTGESVEFVCKRGYRLSSRSHTLRTTCWDGKLEYPTCAKRGGSGHHHHHH | 25 % of the control | 0.426 |

From patent publication US20170190753A1 (LABORATOIRE FRANCAIS DU FRACTIONNEMENT ET DES …, published 2017)
